Assay [1] deals with HLA-B*27:05. Put plainly: IEDB peptide-MHC binding, purified MHC/competitive/fluorescence; filed as Kd, often an IC50 or EC50 that approximates it; ≥ and ≤ were set here for values at or beyond the usual limits of such assays.
Assay [2] has as its target HLA-A*02:01. Described as above.
The target in assay [3] is HLA-A*02:06. Described as above.
In assay [4] the target is HLA-A*24:02. The description is as above.
The target of assay [5] is HLA-A*03:01. Put plainly: IEDB peptide-MHC binding, purified MHC/direct/fluorescence; filed as Kd, often an IC50 or EC50 that approximates it; ≥ and ≤ were set here for values at or beyond the usual limits of such assays.
Assay [6] deals with HLA-A*02:01. Described as above.
The target of assay [7] is HLA-A*24:03. The description is as above.
For assay [8], the target named is HLA-B*08:01. The description is as above.
For assay [9], the target named is HLA-B*27:05. The description is as above.
Assay [10] has as its target HLA-B*40:01. Described as above.
For assay [11], the target named is HLA-A*26:01. Described as above.
Assay [12] concerns the target HLA-A*69:01. The description is as above.
The target of assay [13] is HLA-A*11:01. The assay is described as above.
The target of assay [14] is HLA-A*31:01. Described as above.
Assay [15] concerns the target HLA-B*58:01. The description is as above.
Assay [16] has as its target HLA-A*30:01. The assay is described as above.
For assay [17], the target named is HLA-B*15:01. Described as above.
In assay [18] the target is HLA-B*07:02. Described as above.
The target of assay [19] is HLA-B*44:02. The assay is described as above.
Assay [20] has as its target HLA-A*01:01. Described as above.
The target in assay [21] is HLA-B*35:01. The description is as above.
Assay [22] has as its target HLA-B*15:17. The assay is described as above. The following applies: source organism: Ravn virus - Ravn, Kenya, 1987.
The target in assay [23] is HLA-A*29:02. The assay is described as above. The following applies: source organism: Ravn virus - Ravn, Kenya, 1987.
The target of assay [24] is HLA-B*51:01. The description is as above. The following applies: source organism: Ravn virus - Ravn, Kenya, 1987.
Assay [25] concerns the target HLA-B*57:01. The description is as above. The following applies: source organism: Ravn virus - Ravn, Kenya, 1987.
Assay [26] has as its target HLA-A*02:12. Described as above. The following applies: source organism: Ravn virus - Ravn, Kenya, 1987.
Assay [27] addresses HLA-B*18:01. Described as above. As to conditions: source organism: Ravn virus - Ravn, Kenya, 1987.
Assay [28] addresses HLA-B*15:17. In words: IEDB peptide-MHC binding, purified MHC/competitive/fluorescence; filed as Kd, often an IC50 or EC50 that approximates it; ≥ and ≤ were set here for values at or beyond the usual limits of such assays. As to conditions: source organism: Human immunodeficiency virus 1.
Assay [29] deals with HLA-A*11:01. The assay is described as above. The following applies: source organism: Human immunodeficiency virus 1.
Assay [30] has as its target HLA-A*30:01. The assay is described as above. As to conditions: source organism: Human immunodeficiency virus 1.
The target in assay [31] is HLA-B*57:01. The description is as above. The following applies: source organism: Human immunodeficiency virus 1.
Assay [32] has as its target HLA-B*15:01. Described as above. The following applies: source organism: Human immunodeficiency virus 1.
The target of assay [33] is HLA-B*18:01. The description is as above. As to conditions: source organism: Human immunodeficiency virus 1.
The target of assay [34] is HLA-A*01:01. The assay is described as above. As to conditions: source organism: Human immunodeficiency virus 1.
In assay [35] the target is HLA-A*02:03. The description is as above. As to conditions: source organism: Human immunodeficiency virus 1.
[36] abbreviates: source organism: Shigella boydii Sb227.
[37] abbreviates: source organism: Escherichia coli.
The mark [38] stands for this setting: source organism: Salmonella enterica.
The mark [39] stands for this setting: source organism: Corynebacterium glutamicum.
Where [40] appears, read: source organism: Marburg virus - Musoke, Kenya, 1980.
Where [41] appears, read: source organism: Ravn virus - Ravn, Kenya, 1987.
[42] abbreviates: source organism: Giardia lamblia ATCC 50803.

The source of these data is the Immune Epitope Database (IEDB).

By Kd is commonly meant a measure of binding affinity in units of concentration. High values mean weaker binding, low ones tighter binding.

In the case of GRADTKILF, the Kd in assay [1] (source organism: Influenza A virus (A/swine/Hong Kong/4/1976(H3N2))) was 0.0741 µM.
GLDDSALDA: the Kd is 0.402 µM in assay [2] (setting [36]) and 2.1 µM in assay [3] (setting [36]).
For the sequence IYNTVVLTI, the Kd in assay [4] (source organism: Vibrio parahaemolyticus AQ3810) came out at 0.0004 µM.
Take ALMRWRHPR: the Kd is 0.0994 µM in assay [5] (setting [37]); 9.62 µM in assay [6] (setting [37]); at least 20 µM in assay [7] (setting [38]); at least 20 µM in [8] (setting [38]); 0.237 µM in [9] (setting [37]); at least 20 µM in [10] (setting [38]). Further, the Kd in assay [11] (setting [38]) is at least 20 µM; in assay [12] (setting [38]) it was at least 20 µM; in [13] (setting [37]), 0.00936 µM; in assay [14] (setting [37]), 0.00544 µM; in [15] (setting [38]), at least 20 µM; in assay [16] (setting [37]), 0.00461 µM. The Kd in [17] (setting [38]), in assay [18] (setting [38]), in assay [19] (setting [38]) and in assay [20] (setting [38]) was at least 20 µM in each case.
Consider EYARQVQMI, for which, in assay [4] (source organism: Vibrio vulnificus YJ016), the Kd was at most 0.001 µM.
On to PYPYLFYKF, for which the Kd in assay [4] (source organism: Vibrio cholerae B33) was at most 0.0001 µM.
With IVAWTRTAT, the Kd is at least 20 µM in assay [5] (setting [39]); at least 20 µM in assay [6] (setting [39]); 13.1 µM in [7] (setting [39]); 2.72 µM in [8] (setting [39]); at least 20 µM in [9] (setting [39]); at least 20 µM in assay [10] (setting [39]). Further, the Kd was 0.893 µM in assay [21] (setting [39]); at least 20 µM in [11] (setting [39]); at least 20 µM in assay [12] (setting [39]); at least 20 µM in [13] (setting [39]); at least 20 µM in assay [14] (setting [39]); at least 20 µM in assay [15] (setting [39]). The Kd in assay [16] (setting [39]) was at least 10 µM; in assay [17] (setting [39]), at least 20 µM; in assay [18] (setting [39]), 0.0536 µM; in [20] (setting [39]), at least 20 µM.
Consider NLFDWMHFL, for which the Kd in [6] (setting [40]) is at most 0.001 µM; in assay [22] it was at least 20 µM; in assay [10] (setting [41]), at least 20 µM; in assay [12] (setting [40]), 0.0025 µM; in [23], 2.42 µM; in [24] it was at least 20 µM. For the same sequence, the Kd in assay [15] (setting [41]) was at least 20 µM; in assay [16] (setting [41]) it was at least 20 µM; in assay [25], at least 20 µM; in assay [17] (setting [41]), at least 20 µM; in assay [18] (setting [41]) it was at least 20 µM; in assay [26], 0.006 µM. Further, the Kd in [27] and in assay [19] (setting [41]) was at least 20 µM each time.
Regarding IYLRRYFEI, in assay [4] (source organism: Escherichia coli E22), the Kd was at most 0.0001 µM.
Take GRQAPTADV: in assay [1] (source organism: Escherichia coli str. K-12 substr. MG1655), the Kd came out at 0.285 µM.
As for KSLYNTVAVLY, the Kd in assay [28] is 0.484 µM; in [3] (source organism: Human immunodeficiency virus 1) it was 0.3 µM; in [29] it was at least 20 µM; in assay [30] it was 4.78 µM; in assay [31], 4.82 µM; in assay [32], at least 20 µM. In addition, the figures for the Kd in assay [33], in [34] and in [35] were 0.275 µM, 4.46 µM and at least 20 µM, respectively.
RQVCFFSAT: the Kd was determined as 3.27 µM in assay [2] (setting [42]) and 0.0063 µM in assay [3] (setting [42]).
As for LAAPCRNAL, the Kd in assay [5] (setting [37]) is at least 20 µM; in [6] (setting [37]) it was at least 20 µM; in [7] (setting [37]) it was at least 5 µM; in assay [8] (setting [37]) it was 0.849 µM; in assay [9] (setting [37]), at least 20 µM; in assay [10] (setting [37]), at least 20 µM. The Kd in [21] (setting [37]) was 0.0256 µM; in assay [11] (setting [37]), at least 20 µM; in assay [12] (setting [37]), at least 20 µM; in assay [13] (setting [37]), at least 20 µM; in assay [14] (setting [37]), at least 20 µM; in assay [15] (setting [37]) it was at least 20 µM. The Kd was at least 10 µM in assay [16] (setting [37]), 3.73 µM in assay [17] (setting [37]), 0.0276 µM in assay [18] (setting [37]) and at least 20 µM in assay [20] (setting [37]).
